# Results from patent US20240181050A1 (COMPASS THERAPEUTICS, published 2024).
# Where a chain is given by its changes, count along the chain named.
# T1: mouse CD137 (equilibrium cell-binding assay) (mouse, UniProt P20334 24-256)
# T1 construct: whole, on cells; The cells are not described; also called mCD137
# T1 sequence (looked up): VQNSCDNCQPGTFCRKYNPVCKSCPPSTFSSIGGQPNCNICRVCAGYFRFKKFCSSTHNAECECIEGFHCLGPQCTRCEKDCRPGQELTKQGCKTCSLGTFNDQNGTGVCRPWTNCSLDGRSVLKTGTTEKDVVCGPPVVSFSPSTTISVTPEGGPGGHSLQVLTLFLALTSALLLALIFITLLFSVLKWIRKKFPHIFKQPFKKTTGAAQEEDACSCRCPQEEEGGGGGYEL
# T2: mouse CD137 (recombinant, ForteBio Octet) (mouse, UniProt P20334 24-187, limits assumed)
# T2 construct: also called murine CD137
# T2 sequence (looked up): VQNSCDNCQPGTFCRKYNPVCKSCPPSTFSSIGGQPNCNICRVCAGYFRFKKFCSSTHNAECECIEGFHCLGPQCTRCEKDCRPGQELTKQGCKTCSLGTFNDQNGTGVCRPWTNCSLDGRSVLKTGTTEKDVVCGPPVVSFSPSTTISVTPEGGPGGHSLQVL
# T3: Fc-, mouse IgG2a-, or His-tagged mouse CD137 (mouse, UniProt P20334 24-187)
# T3 construct: Antigens came from ACRO Biosystems, Sino Biological and internal sources; not shown: Fc, mouse IgG2a or His tag
# T3 sequence (looked up): T2 sequence (looked up)
# T4: Fc-, mouse IgG2a-, or His-tagged cynomolgus CD137 (cynomolgus, UniProt A9YYE7 24-186)
# T4 construct: also called cyno CD137; not shown: Fc, mouse IgG2a or His tag
# T4 sequence: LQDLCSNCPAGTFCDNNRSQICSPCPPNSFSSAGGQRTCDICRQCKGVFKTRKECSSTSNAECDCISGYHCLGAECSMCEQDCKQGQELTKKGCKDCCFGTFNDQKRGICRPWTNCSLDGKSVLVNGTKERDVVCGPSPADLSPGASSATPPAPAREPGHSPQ
# B1: mAb1 wild type, reference of the CDRH3 alanine scan (antibody, V domains shown)
# VH: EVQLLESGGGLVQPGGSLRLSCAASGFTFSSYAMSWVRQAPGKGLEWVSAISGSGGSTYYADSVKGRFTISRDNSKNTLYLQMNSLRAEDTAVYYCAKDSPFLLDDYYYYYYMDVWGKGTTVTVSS
# VL: DIQMTQSPSSVSASVGDRVTITCRASQGISSWLAWYQQKPGKAPKLLIYAASSLQSGVPSRFSGSGSGTDFTLTISSLQPEDFATYYCQQGHLFPITFGGGTKVEIK
# notes: The derivatives were cloned into an aglyco-IgG1 expression vector (DID-2600); also called WT KD
# B2: mAb1 alanine-substituted derivative D95A (antibody, V domains shown)
# VH: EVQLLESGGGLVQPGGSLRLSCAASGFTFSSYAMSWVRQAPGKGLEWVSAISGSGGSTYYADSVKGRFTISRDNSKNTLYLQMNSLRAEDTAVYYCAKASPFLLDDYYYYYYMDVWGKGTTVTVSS
# VL: B1 VL
# notes: aglyco-IgG1 vector (DID-2600)
# B3: mAb1 alanine-substituted derivative D(100B)A (antibody, IgG1, V domains shown)
# VH: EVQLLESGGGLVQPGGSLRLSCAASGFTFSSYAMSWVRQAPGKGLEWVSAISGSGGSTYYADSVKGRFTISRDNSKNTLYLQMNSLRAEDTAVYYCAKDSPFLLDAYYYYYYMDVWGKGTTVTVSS
# VL: B1 VL
# notes: aglyco-IgG1 vector (DID-2600)
# B4: mAb1 alanine-substituted derivative L99A (antibody, IgG1, V domains shown)
# VH: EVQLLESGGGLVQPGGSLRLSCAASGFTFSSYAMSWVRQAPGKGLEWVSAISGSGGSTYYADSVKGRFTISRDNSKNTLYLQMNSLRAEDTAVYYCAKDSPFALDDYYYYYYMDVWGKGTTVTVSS
# VL: B1 VL
# notes: aglyco-IgG1 vector (DID-2600)
# B5: mAb1 alanine-substituted derivative L100A (antibody, IgG1, V domains shown)
# VH: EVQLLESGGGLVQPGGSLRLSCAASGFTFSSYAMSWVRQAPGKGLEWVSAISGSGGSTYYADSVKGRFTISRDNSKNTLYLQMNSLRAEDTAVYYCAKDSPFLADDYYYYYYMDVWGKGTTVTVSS
# VL: B1 VL
# notes: aglyco-IgG1 vector (DID-2600); Leucine at position 100 is changed to alanine
# B6: mAb1 alanine-substituted derivative M(100I)A (antibody, IgG1, V domains shown)
# VH: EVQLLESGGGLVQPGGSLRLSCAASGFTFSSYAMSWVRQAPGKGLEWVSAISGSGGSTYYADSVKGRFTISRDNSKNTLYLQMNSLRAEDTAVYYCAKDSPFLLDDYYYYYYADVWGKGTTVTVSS
# VL: B1 VL
# notes: aglyco-IgG1 vector (DID-2600)
# B7: mAb1 alanine-substituted derivative S96A (antibody, IgG1, V domains shown)
# VH: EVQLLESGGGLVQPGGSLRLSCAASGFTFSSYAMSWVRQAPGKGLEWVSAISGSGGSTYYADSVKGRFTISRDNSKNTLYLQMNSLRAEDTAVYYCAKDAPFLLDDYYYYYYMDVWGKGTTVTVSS
# VL: B1 VL
# notes: aglyco-IgG1 vector (DID-2600)
# B8: mAb1 alanine-substituted derivative Y(100C)A (antibody, IgG1, V domains shown)
# VH: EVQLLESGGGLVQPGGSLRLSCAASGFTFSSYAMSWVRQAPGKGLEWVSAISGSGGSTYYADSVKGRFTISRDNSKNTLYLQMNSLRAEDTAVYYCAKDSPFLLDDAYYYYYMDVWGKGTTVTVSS
# VL: B1 VL
# notes: aglyco-IgG1 vector (DID-2600)
# B9: mAb1 alanine-substituted derivative Y(100D)A (antibody, IgG1, V domains shown)
# VH: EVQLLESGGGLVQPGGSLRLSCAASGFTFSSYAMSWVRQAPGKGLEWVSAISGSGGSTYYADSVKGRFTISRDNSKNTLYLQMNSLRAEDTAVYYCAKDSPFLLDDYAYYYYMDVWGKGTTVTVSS
# VL: B1 VL
# notes: aglyco-IgG1 vector (DID-2600)
# B10: mAb1 alanine-substituted derivative Y(100E)A (antibody, IgG1, V domains shown)
# VH: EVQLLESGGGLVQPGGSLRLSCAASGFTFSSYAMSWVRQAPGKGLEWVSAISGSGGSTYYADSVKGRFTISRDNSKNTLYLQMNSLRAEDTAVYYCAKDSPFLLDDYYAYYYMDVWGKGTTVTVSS
# VL: B1 VL
# notes: aglyco-IgG1 vector (DID-2600)
# B11: mAb1 alanine-substituted derivative Y(100G)A (antibody, IgG1, V domains shown)
# VH: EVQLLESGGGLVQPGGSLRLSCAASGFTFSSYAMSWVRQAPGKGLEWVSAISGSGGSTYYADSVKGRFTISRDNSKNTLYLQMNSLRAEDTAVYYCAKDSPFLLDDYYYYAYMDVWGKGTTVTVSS
# VL: B1 VL
# notes: aglyco-IgG1 vector (DID-2600)
# B12: mAb1 alanine-substituted derivative Y(100H)A (antibody, IgG1, V domains shown)
# VH: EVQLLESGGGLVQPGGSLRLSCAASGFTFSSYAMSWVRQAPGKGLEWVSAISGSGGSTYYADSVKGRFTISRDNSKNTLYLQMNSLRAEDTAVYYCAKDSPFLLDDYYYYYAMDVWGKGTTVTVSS
# VL: B1 VL
# notes: aglyco-IgG1 vector (DID-2600)
# B13: anti-CD137 mAb8 (antibody, V domains shown)
# VH: EVQLLESGGGLVQPGGSLRLSCAASGFTFRNYAMSWVRQAPGKGLEWVSAISGSGDTTYYADSVKGRFTISRDNSKNTLYLQMNSLRAEDTAVYYCAKDSPFLLDDYYYYYYMDVWGKGTTVTVSS
# VL: B1 VL
# notes: Generated with IgG4 constant regions
# B14: anti-CD137 mAb10 (antibody, IgG4, V domains shown)
# VH: B13 VH with R30Y, N31G, S49A, T57S
# VL: B1 VL
# notes: as for B13
# B15: mAb7 (antibody, IgG4, V domains shown)
# VH: B13 VH with R30N, N31Y, S52D, T57N, Y59T
# VL: B1 VL
# B16: mAb9 (antibody, IgG4, V domains shown)
# VH: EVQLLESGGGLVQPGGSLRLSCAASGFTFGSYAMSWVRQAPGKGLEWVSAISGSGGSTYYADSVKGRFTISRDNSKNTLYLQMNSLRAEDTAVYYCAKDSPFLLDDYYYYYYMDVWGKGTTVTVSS
# VL: B1 VL
# B17: mAb11 (antibody, IgG4, V domains shown)
# VH: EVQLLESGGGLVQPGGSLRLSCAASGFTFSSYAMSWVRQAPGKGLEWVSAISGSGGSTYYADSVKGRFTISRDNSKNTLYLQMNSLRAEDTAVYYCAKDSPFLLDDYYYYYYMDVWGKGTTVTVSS
# VL: DIQMTQSPSTLSASVGDRVTITCRASQNIHNWLAWYQQKPGKAPKLLIYKASGLESGVPSRFSGSGSGTEFTLTISSLQPDDFATYYCQQGDRFPLTFGGGTKVEIK
# B18: mAb12 (antibody, IgG4, V domains shown)
# VH: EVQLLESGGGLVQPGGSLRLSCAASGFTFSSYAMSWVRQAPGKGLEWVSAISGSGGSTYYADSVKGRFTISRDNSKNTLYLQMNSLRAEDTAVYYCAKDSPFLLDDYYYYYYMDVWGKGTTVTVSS
# VL: DIQLTQSPSSLSASVGDRVTITCRASQDIGDWLAWYQQKPGKAPKLLIYKASGLQSGVPSRFSGSGSGTEFTLTISNLQPEDFATYYCQQGNQFPLTFGQGTRLE
# B19: mAb1 Fab (Fab, V domains shown)
# VH: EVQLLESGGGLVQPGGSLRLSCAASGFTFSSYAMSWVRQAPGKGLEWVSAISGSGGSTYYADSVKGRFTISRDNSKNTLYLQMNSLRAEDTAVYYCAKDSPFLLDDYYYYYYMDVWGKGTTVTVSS
# VL: B1 VL
# B20: mAb8 Fab (Fab, V domains shown)
# VH: B13 VH
# VL: B1 VL
# B21: mAb10 Fab (Fab, V domains shown)
# VH: B13 VH with R30Y, N31G, S49A, T57S
# VL: B1 VL
# Assays:
# [1] = target: T1, mouse CD137 (equilibrium cell-binding …); experiment: equilibrium cell-binding assay, mouse CD137
# [2] = target: T5, human CD137 (recombinant, construct not stated) (human, UniProt Q07011 24-186); experiment: Wasatch SPR kinetics, human CD137
# T5 construct: also called huCD137; 4-1BB
# [3] = target: T2, mouse CD137 (recombinant, ForteBio …); experiment: ForteBio Octet (BLI) as described in Example 2
# Procedure: Affinity of the CD137 antibodies was determined by measuring their kinetic constants (kₐ, kd, KD) on ForteBio Octet. ForteBio affinity measurements were performed generally as previously described (Estep et al., MAbs. 2013 5(2):270-8). Briefly, ForteBio affinity measurements were performed by loading antibodies (IgGs) on-line onto AHQ sensors. Sensors were equilibrated off-line in assay buffer for 30 minutes and then monitored on-line for 60 seconds for baseline establishment. For avid binding measurement, sensors with loaded IgGs were exposed to 100 nM antigen (human, cyno, or murine CD137) for 3 minutes, afterwards they were transferred to assay buffer for 3 minutes for off-rate measurement. Monovalent binding measurements were obtained by loading human CD137-Fc fusion on AHQ sensors followed by exposure to 200 nM antibody Fab in solution. Kinetics data were fit using a 1:1 binding model in the data analysis software provided by ForteBio (data not shown).
# [4] = target: T6, purified recombinant his tagged human CD137 (human, UniProt Q07011 24-186); experiment: Carterra MX96 SPRi; antibody printed on chip, his tagged human CD137 injected
# T6 construct: not shown: his tag
# Procedure: The resulting anti-CD137 antibodies from different selection rounds were plotted on kd/kₐ double log plots. Apparent association and dissociation kinetic rate constants (kₐ and kd values) were determined on an SPRi reader (MX96, Carterra) in a running buffer of PBS-T 0.01%. Anti-human CD137 antibodies were covalently printed on a Carboxymethyldextran hydrogel 50 L chip (Xantec bioanalytics) on a CFM (Carterra). Freshly mixed activating reagents (150 […] 0.1 M sulfo-NHS in H2O) were used to activate the surface of the SPR substrate for 7 minutes. Antibodies at 10 mg/ml in acetic acid buffer pH 4.5 were used for printing for 15 minutes. The printed chip was then quenched on SPRi reader (MX96, Carterra) with 1 M ethanolamine for 15 minutes. For kinetics analysis, purified recombinant his tagged human CD137 (0, 2.05, 5.12, 12.8, 32, 80, 200, 500 nM) was injected sequentially. For each concentration, there was 5 minutes of association followed by 10 minutes of dissociation. Data were processed and analyzed in SPR Inspection Tool and Scrubber softwares. The kinetic data were referenced with the interstitial reference spots and double-referenced to a buffer cycle, and then fit globally to a 1:1 binding model to determine their apparent association and dissociation kinetic rate constants (kₐ and kd values). The ratio kd/kₐ was used to derive the KD value of each antigen/mAb interaction, i.e. KD=kd/kₐ.
# [5] = target: T7, Fc-, mouse IgG2a-, or His-tagged human CD137 (human, UniProt Q07011 24-186); experiment: BLI Octet HTX; tagged CD137 on biosensor, Fab 0-500 nM in solution; global 1:1 fit, apparent KD
# T7 construct: Antigens came from ACRO Biosystems, Sino Biological and internal sources; not shown: Fc, mouse IgG2a or His tag
# Procedure: (§1) The anti-CD137 antibodies were further tested for their binding to CD137 from multiple species. Specifically, mAb1, mAb8 and mAb10 were analyzed for binding to human, mouse, cynomolgus and canine CD137. Kinetic experiments were performed on Octet HTX (ForteBio) in kinetics buffer (1×PBS, pH 7.4, 0.1 mg/ml BSA, and 0.002% Tween 20). Fc-, mouse IgG2a-, or His-tagged CD137 (human, mouse, cyno or canine) were loaded for 5 minutes on pre-hydrated biosensors, AHC, AMC or NTA respectively. The sensors were then dipped into Fabs (0, 5.12, 12.8, 32, 80, 200 and 500 nM) for 5 minutes of association, following by 15 minutes of dissociation. Results were analyzed with ForteBio Data Analysis 9.0 and fit globally to a 1:1 binding model to determine the apparent KD. KD for human and mouse CD137 binding were confirmed by using antigens from different sources (ACRO Biosystems, Sino Biological and internal).
# [6] = target: T3, Fc-, mouse IgG2a-, or His-tagged mouse …; experiment: as above
# Procedure: as §1
# [7] = target: T4, Fc-, mouse IgG2a-, or His-tagged …; experiment: as above
# Procedure: as §1
binder,measurement,setting,value
B1,Kd,[1],11 nM
same,Kd,[2],1 nM
B2,binding result,[1],no binding
same,binding result,[2],no binding
B3,Kd,[1],54 nM
same,Kd,[2],1.3 nM
B4,Kd,[1],33 nM
same,Kd,[2],2.7 nM
B5,binding result,[1],no binding
same,binding result,[2],no binding
B6,Kd,[1],21 nM
same,Kd,[2],1.8 nM
B7,Kd,[1],40 nM
same,Kd,[2],1.8 nM
B8,Kd,[1],25 nM
same,Kd,[2],1 nM
B9,Kd,[1],170 nM
B10,binding result,[1],no binding
same,binding result,[2],no binding
B11,binding result,[1],no binding
same,binding result,[2],no binding
B12,binding result,[1],no binding
same,binding result,[2],no binding
B13,Kd,[3],72 nM
same,Kd,[4],3.2 nM
B14,Kd,[3],8.4 nM
same,Kd,[4],20 nM
B15,Kd,[3],1.2 nM
same,Kd,[4],6.8 nM
B16,Kd,[3],6.9 nM
same,Kd,[4],41.4 nM
B17,Kd,[3],4.8 nM
same,Kd,[4],4.1 nM
B18,Kd,[3],25.8 nM
same,Kd,[4],12.1 nM
B19,Kd,[5],50 to 70 nM
same,Kd,[6],300 to 500 nM
same,Kd,[7],30 to 100 nM
B20,Kd,[5],3 to 5 nM
same,Kd,[6],50 to 90 nM
same,Kd,[7],3 to 7 nM
B21,Kd,[5],0.9 nM
same,Kd,[6],10 to 30 nM
same,Kd,[7],1.8 nM
